{"source": "paper PMC8266576", "about": "“TnpAREP and REP sequences dissemination in bacterial genomes: REP recognition determinants”", "binders": {"B1": {"name": "B268i (61) wt y REPEc (structured_DNA)", "DNA": "GTAGGACGGATAAGGCGTTTACGCCGCATCCGGCAGTTGTACGCAGGTGCCTGATGCGACG"}, "B2": {"name": "B268i (61) GTGG (structured_DNA)", "DNA": "GTGGGACGGATAAGGCGTTTACGCCGCATCCGGCAGTTGTACGCAGGTGCCTGATGCGACG"}, "B3": {"name": "B268i (61) GTAC (structured_DNA)", "DNA": "GTACGACGGATAAGGCGTTTACGCCGCATCCGGCAGTTGTACGCAGGTGCCTGATGCGACG"}, "B4": {"name": "B2689 mut loop (complement of loop) (structured_DNA)", "DNA": "GTAGGACGGATAAGGCGTAAACGCCGCATCCGGCAGTTGTACGCAGGTGCCTGATGCGACG"}}, "molecular_target": "T1, TnpAREP Ec (TnpAEc-His6) (Escherichia coli, UniProt Q47152 1-165)", "T1 sequence": "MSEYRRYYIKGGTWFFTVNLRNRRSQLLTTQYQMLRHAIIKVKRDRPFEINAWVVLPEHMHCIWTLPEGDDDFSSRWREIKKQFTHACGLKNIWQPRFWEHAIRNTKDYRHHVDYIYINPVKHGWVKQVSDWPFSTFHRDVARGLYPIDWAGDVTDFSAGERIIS", "assay": "EMSA; 2 and 4 uM protein, no divalent metal; EMSA: 12.5 mM Tris pH 7.5, 120 mM NaCl, 1 mM DTT, 20 ug/ml BSA, 0.5 ug poly-dIdC, 7% glycerol, no divalent metal; 0.02 uM labelled + 0.5 uM unlabelled oligonucleotide, 45 min 37 C (standard reaction); 8% native gel (TAE, 7% glycerol) at 4 C", "details": "protein: recombinant, tags: His6 (C-terminal by name), chain copies: 2, label: 5'-32P"}
{"binder": "GTAGGACGGATAAGCATCCGGCAGTTGTACGCAGGTGCCTGATGCGACG (structured_DNA)", "note": "[B2688 del upper stem and loop]", "values": [{"measurement": "binding result", "result": "no binding"}]}
{"binder": "B1", "values": [{"measurement": "binding result", "setting": "hairpin with bulge", "result": "binds"}]}
{"binder": "B2", "values": [{"measurement": "binding result", "setting": "hairpin with bulge", "result": "no binding"}]}
{"binder": "B3", "values": [{"measurement": "binding result", "setting": "hairpin with bulge", "result": "no binding"}]}
{"binder": "B4", "values": [{"measurement": "binding result", "setting": "hairpin with bulge", "result": "binds"}]}
